B1: HDV Ribozyme (parent)
chain: GGCCGGCAUGGUCCCAGCCUCCUCGCUGGCGCCGGCUGGGCAACAUUCCGAGGGGACCGUCCCCUCGGUAAUGGCGAAUGGGACCCA

For 167 variants, self-cleavage results are on record in the RNAGym collection of RNA variant scans (doi:10.7554/elife.80360).

The variants in this data set derive from B1. Briefly: self-cleavage, relative activity (ratio to wild type); higher = more cleavage; co-transcriptional.
Consider U46A C66G, for which the self-cleavage came to 1.05.
With A45U A78G, the self-cleavage amounted to 0.571.
As to U46C A51G, the self-cleavage was determined as 0.639.
For the variant U46C A51U, the self-cleavage amounted to 0.846.
For the variant U46C A51C, the self-cleavage was 0.504.
For U46A C49U, the self-cleavage was 0.739.
On to U46A C49G, for which the self-cleavage came out at 0.415.
On to A45U C48U, for which the self-cleavage is 0.79.
Regarding A45U C48A, the self-cleavage came out at 0.7.
The value for A45U C49A was 0.748; that for A45U C49G was 0.458.
The result for A45U C58G reads 0.712; that for A45U C58U, 0.849; that for U46C A83U, 0.554.
The value for U46A A78U was 0.156.
For the variant U46A A78G, the self-cleavage came to 0.277.
Consider U46A G52C, for which the self-cleavage came to 0.759.
With U46A G54C, the self-cleavage is 0.706.
The result for U46C C61G reads 0.734; that for U46C C61U, 0.796; that for U46A C48G, 0.802.
The result for U46A C48U reads 0.739.
Regarding U46A A77C, the self-cleavage is 0.119.
Take U46A A77U: the self-cleavage is 0.115.
The value for U46A A77G was 0.646; that for U46C C75G was 0.469; that for U46C A71G was 1.2.
As to U46C A71U, the self-cleavage worked out at 0.767.
With U46C A71C, the self-cleavage came to 0.772.
As for A45U U79A, the self-cleavage was found to be 0.192.
The result for A45U U79C reads 0.26.
The result for U46C C64U reads 0.725; that for U46C C64G, 0.875; that for U46A A70U, 0.587.
The result for U46A A70C reads 0.831; that for U46A A70G, 1.01.
Regarding U46C C62U, the self-cleavage came to 0.918.
Take U46C C62A: the self-cleavage was found to be 0.623.
Consider U46A C64A, for which the self-cleavage is 0.554.
U46A C64G: the self-cleavage came to 0.38.
As for U46A C64U, the self-cleavage is 0.649.
For U46A G55A, the self-cleavage worked out at 0.716.
The result for A45U G52C reads 0.743; that for A45U G52U, 0.674.
The result for A45U G52A reads 0.798.
The result for A45U A83U reads 0.128; that for A45U A83C, 0.0875.
In the case of U46A C63G, the self-cleavage amounted to 0.723.
A45U A77G: the self-cleavage came to 0.609.
As to A45U A77U, the self-cleavage is 0.322.
As to A45U A77C, the self-cleavage is 0.155.
Take A45U A56G: the self-cleavage came to 0.806.
In the case of A45U A56U, the self-cleavage is 0.831.
As to U46A C85G, the self-cleavage stood at 0.575.
Turning to U46A C85A, the self-cleavage is 0.7.
As to A45U C85A, the self-cleavage was determined as 0.88.
Consider A45U A71C, for which the self-cleavage is 0.653.
As for A45U A71U, the self-cleavage was determined as 1.01.
Regarding A45U G53U, the self-cleavage turned out to be 0.997.
The result for U46A A87U reads 0.76; that for U46A A87G, 0.712; that for U46A U72C, 0.655.
On to U46A U72A, for which the self-cleavage amounted to 0.615.
The value for U46A U72G was 0.65; that for U46A G82A was 0.156.
Regarding U46A G73U, the self-cleavage turned out to be 0.0811.
In the case of U46A A56U, the self-cleavage was 0.704.
As to U46A A56C, the self-cleavage was 0.802.
The value for U46A A56G was 0.831.
As for A45U U65A, the self-cleavage is 0.618.
On to A45U U65C, for which the self-cleavage amounted to 1.04.
A45U C86G: the self-cleavage came to 0.795.
In the case of A45U C86A, the self-cleavage stood at 0.77.
A45U C86U: the self-cleavage came to 0.95.
The result for A45U G82A reads 0.162.
Regarding A45U G82U, the self-cleavage was determined as 0.529.
U46A U65C: the self-cleavage is 0.65.
In the case of U46A U65G, the self-cleavage came out at 0.675.
The value for U46A U65A was 0.914.
U46A G67C: the self-cleavage is 0.76.
Regarding A45U G73C, the self-cleavage is 0.62.
As for U46C C66U, the self-cleavage was determined as 0.886.
As to U46A G50C, the self-cleavage amounted to 0.597.
Turning to U46A G50U, the self-cleavage turned out to be 0.73.
Regarding A45U C62A, the self-cleavage is 0.791.
The result for A45U C62U reads 0.923; that for A45U U47A, 0.973; that for A45U U47G, 0.867.
Regarding A45U U47C, the self-cleavage was found to be 0.772.
Regarding U46A U79A, the self-cleavage was 0.504.
The value for U46A U79G was 0.322; that for U46C C49U was 0.73; that for U46C C49G was 0.554.
In the case of A45U U69A, the self-cleavage worked out at 0.77.
Take U46A U60A: the self-cleavage amounted to 0.751.
Consider U46A G59U, for which the self-cleavage was determined as 0.674.
For U46A G59C, the self-cleavage worked out at 0.57.
U46A C84A: the self-cleavage came out at 0.629.
Turning to U46A C84U, the self-cleavage came out at 0.397.
With U46C A78U, the self-cleavage stood at 0.302.
The result for U46C C58A reads 0.554.
As for A45U C63A, the self-cleavage is 0.784.
In the case of A45U C63U, the self-cleavage is 0.856.
For the variant A45U G68U, the self-cleavage was determined as 0.845.
Turning to U46A C62U, the self-cleavage is 0.712.
Turning to U46A C62A, the self-cleavage is 0.543.
The value for U46A G80C was 0.0831; that for U46C A56U was 1.09.
The value for U46A C57A was 0.851; that for U46A C57U was 0.657.
The value for A45U G67U was 0.801.
For the variant U46C G53A, the self-cleavage worked out at 0.796.
As for U46C G53C, the self-cleavage was determined as 0.739.
Regarding U46C C57U, the self-cleavage was determined as 0.705.
For A45U G55A, the self-cleavage was 0.594.
In the case of U46A, the self-cleavage stood at 0.794.
As for U46C, the self-cleavage worked out at 0.815.
For U46A G74C, the self-cleavage worked out at 0.297.
Regarding A45U C75G, the self-cleavage is 0.133.
The value for A45U C75U was 0.321.
Consider A45U C75A, for which the self-cleavage was determined as 0.277.
The value for U46A G81A was 0.271.
In the case of U46A C86G, the self-cleavage came out at 0.831.
In the case of A45U A51C, the self-cleavage came out at 0.796.
For the variant A45U A51G, the self-cleavage amounted to 0.965.
The value for U46C A77G was 0.516; that for U46C A77C was 0.375.
Regarding U46C A77U, the self-cleavage worked out at 0.104.
As for U46C C86A, the self-cleavage worked out at 0.849.
For the variant U46A A51C, the self-cleavage amounted to 0.831.
Turning to U46A A51U, the self-cleavage came out at 0.536.
For U46A A51G, the self-cleavage came to 0.739.
For A45U G54C, the self-cleavage turned out to be 0.849.
Consider A45U G54U, for which the self-cleavage came out at 0.8.
For the variant U46A C61G, the self-cleavage turned out to be 0.808.
Turning to A45U U60C, the self-cleavage worked out at 0.911.
On to A45U U60A, for which the self-cleavage worked out at 0.723.
Take A45U C61U: the self-cleavage came out at 0.876.
As for U46A G53U, the self-cleavage turned out to be 0.712.
For U46A G68U, the self-cleavage came to 0.657.
U46A G68A: the self-cleavage is 0.65.
U46A U47G: the self-cleavage came to 0.369.
The value for A45U G80U was 0.153.
Consider A45U C64A, for which the self-cleavage is 0.882.
The value for A45U C64U was 0.764.
For U46A G76A, the self-cleavage turned out to be 0.831.
The result for U46A U69C reads 0.779; that for U46C G54C, 1.04.
The result for U46C A87U reads 0.689; that for U46C A87C, 0.91; that for A45U U46A, 0.639.
For the variant A45U U72G, the self-cleavage stood at 0.755.
Regarding A45U A70U, the self-cleavage was 0.989.
As to A45U G50C, the self-cleavage was 0.767.
The value for A45U G50A was 0.844; that for A45U C57U was 0.712.
For U46A C75G, the self-cleavage stood at 0.0594.
With U46C C84A, the self-cleavage stood at 0.723.
For the variant U46C C84G, the self-cleavage came to 0.237.
Regarding U46C G52U, the self-cleavage was 1.05.
As to U46C A70C, the self-cleavage was 0.795.
In the case of U46C A70U, the self-cleavage worked out at 0.957.
Regarding A45U G59C, the self-cleavage came to 0.969.
Regarding A45U G59U, the self-cleavage turned out to be 0.903.
Consider A45U G59A, for which the self-cleavage worked out at 1.
With A45U G74A, the self-cleavage turned out to be 0.513.
Regarding A45U G74C, the self-cleavage is 0.0923.
